Source: patent US7108990B2, “Chemokine receptor” (ChemoCentryx, Inc., priority 1999, dated 2006)
“Also recorded” adds a separate entry of the source. Each block holds one molecule with its values, some of them ahead of it.

What was measured:
CCX CKR [1] = target: T1, CCX CKR (Homo sapiens, UniProt Q9NPB9); test: Homologous competition binding assay with radiolabeled chemokine on HEK293-CCX CKR cells; conditions: HEK293-CCX CKR cells versus wildtype HEK293 cells
T1 construct: Full length CCX CKR expression constructs were made in pIRESpuro expression vector; expressed in transfected cells
T1 sequence (Q9NPB9 1-350): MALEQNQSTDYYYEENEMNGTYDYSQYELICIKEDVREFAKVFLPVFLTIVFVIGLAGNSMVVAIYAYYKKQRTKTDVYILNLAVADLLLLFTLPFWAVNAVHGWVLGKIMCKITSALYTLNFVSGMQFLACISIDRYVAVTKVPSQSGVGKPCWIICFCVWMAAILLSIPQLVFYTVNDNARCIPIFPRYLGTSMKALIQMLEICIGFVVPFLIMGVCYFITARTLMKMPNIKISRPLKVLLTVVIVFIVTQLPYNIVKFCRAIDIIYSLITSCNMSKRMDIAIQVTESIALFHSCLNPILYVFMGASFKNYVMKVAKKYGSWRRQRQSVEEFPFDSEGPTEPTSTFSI
Source text: Furthermore ELC-SK mediated adhesion was abolished in the presence of soluble native ELC as a competitor (FIG. 3A, top row). […] Moreover, radiolabeled ELC was used in a traditional homologous competition assay in the presence of increasing concentrations of unlabeled ELC. […] Taken together, the stalkokine-based adhesion and radiolabeled ligand binding/homologous competition assays indicate that CCX CKR is a new chemokine receptor that bound a novel compliment of chemokines.

CCX CKR [2] = target: T1, CCX CKR; test: Preliminary chemotaxis analysis of CCX CKR transfectants; assay type: cell-based; conditions: preliminary chemotaxis analyses
CCX CKR [3] = target: T1, CCX CKR; test: Ligand binding fingerprint: cold chemokines competing against 125I-ELC on CCX CKR stable transfectants; conditions: cold competitor at 200 nM; human and murine chemokines
Source text: In order to rapidly and thoroughly define a given chemokine receptor's ligand binding fingerprint, we have established an approach to comprehensively profile chemokine receptors using a large array of purified chemokines and chemokine variants. We used this approach to confirm independently the interaction of ELC and other chemokines with CCX CKR. Employing radioligand binding of ^125-labeled-ELC or ^125-TECK to CCX CKR stable transfectants, chemokine specificity for the new receptor was determined.
(§1) Binding analysis was carried out using efficiency-maximized radioligand binding utilizing filtration protocols designated “Displace Max” (Dairaghi et al., 1999, J. Biol. Chem. 274:21569). In these assays, DisplaceMax employed the simultaneous interrogation of CCX CKR transfectants by >80 distinct purified chemokines in the ability to displace radiolabeled ELC or TECK, using the protocol described (Dairaghi et al., 1999, J. Biol. Chem. 274:21569).

CCX CKR [4] = target: T1, CCX CKR; test: Adhesion of HEK293-CCX CKR cells to immobilized stalkokines and competition by soluble chemokines; assay type: cell-based; conditions: soluble recombinant chemokine 5–10 ug/ml
Source text: “Stalkokine” technology was used to identify the chemokines bound by the CCX CKR. Briefly, immobilized native chemokines alone are incapable of capturing cells bearing cognate receptors (Imai et al., 1997, Cell 91:521). We have developed non-native chemokine structures, stalkokines, comprising chemokine moieties engineered as N-terminal attachments to extended modified mucins (Bazan et al., 1997, Nature 385:640). In one embodiment, stalkokines, harvested in the supernatants of HEK293 cells after transient transfection, are anchored to solid substrates via antibodies against carrier domains (e.g. poly-His epitopes) engineered to the carboxyl terminus, leaving the chemokine domain free to interact with candidate orphan receptors.
To determine ligand binding to CCX CKR, HEK293-CCX CKR cells were used to interrogate chemokine ‘stalkokines’ (SK), i.e., molecules in which discrete chemokine domains were engineered to be tethered to the end of an extended stalk structure. Stalkokines were interrogated using 8-well chamber slides coated first with anti-His anchoring antibody (10 ug/ml in PBS overnight at RT), which were washed and ‘blocked’ (2% FBS/0.5% BSA in PBS); treated with 250 ul of HEK293 cell stalkokine supernatants (1 hr at 37 C), and incubated with 500,000 HEK293-CCX CKR transfectants (1.5 hrs at RT). Inhibition of adhesion by competition with soluble chemokines was done by incubating cells with 5–10 ug/ml of recombinant chemokines. In all cases, nonadherent cells were removed by washing in PBS; remaining adherent cells were fixed with 1% glutaraldehyde, photoimaged and counted. As a primary screen this adhesion would reveal putative receptor-ligand interactions.

CCX CKR [5] = target: T1, CCX CKR; test: Ligand induced internalization of Flag-CCX CKR in 293 cells (FACS); assay type: cell-based; conditions: 100 nM chemokine, 37° C., 15 or 45 minutes, 293 F-CCR10 cells
Protocol: 293 cells transfected with the Flag-CCX CKR fusion plasmid (i.e., “293 F-CCR10 cells;” see Example 3) were incubated at 37° C. with varying concentrations of chemokines (ELC, SLC, TECK, murine CTACK and MCP-4) for 15 or 45 minutes. Following incubation, the cells were washed and fixed with 3% paraformaldehyde for 15 minutes on ice. The cells were stained with anti-Flag M1 antibody, followed by a PE-conjugated anti-mouse secondary antibody. FACS analysis were then carried out to determine surface expression of the receptor.
Results: A reduction in antibody binding in the presence of ligand is an indication of ligand-induced internalization of the receptor.

CCX CKR [6] = target: T1, CCX CKR; test: Radioligand binding competition (DisplaceMax) to CCX CKR stable transfectants with Scatchard transformation
Source text: In one embodiment, binding is detected as described by Dairaghi et al., 1997, J. Biol. Chem. 272:28206–209 (incorporated by reference in its entirety for all purposes) substituting CCX CKR transfectants for the CCR3 transfectants). In one embodiment, binding is detected using the filter based technique described by Dairaghi et al., 1999, J. Biol. Chem. 274:2156 (incorporated by reference in its entirety for all purposes), e.g., as shown in FIG. 4. Briefly, this technology employs expanded, efficiency-maximized radioligand binding utilizing filtration protocols. In these assays, 1×10^5 CCXCKR-293 HEK cells are incubated with ^125I-labeled ELC (MIP3beta) (final concentration of ˜0.05 nM) in the presence of unlabeled chemokine for 3 h at 4° C. in 25 mM HEPES, 140 mM NaCl, 1 mM CaCl2, 5 mM MgCl2, and 0.2% bovine serum albumin, adjusted to pH 7.1. Reactions were aspirated onto PEI-treated GF/B glass filters using a cell harvester (Packard). Filters are washed twice (25 mM HEPES, 500 mM NaCl, 1 mM CaCl2 5 mM MgCl2, adjusted to pH 7.1) and scintillant (e.g., MicroScint 20; 50 μl) is added to dried filters and counted (e.g., using a Packard Topcount scintillation counter). The competition dose-response curves is analyzed by standard methods to determine IC50 values (e.g., using GraphPad Prism software (San Diego, Calif.)). Additionally, a Scatchard transformation can be used to estimate the receptor sites per cell (e.g., using WaveMetrics Igor software (Lake Oswego, Oreg.)).
as §1
The binding interactions identified in the primary screen were examined quantitatively by extensive radioligand binding competition to CCX CKR stable transfectants and Scatchard transformation of the displacement data (FIG. 4B). […] In each case, the murine versions of these chemokines also bound, and with even greater affinity; the apparent Kd's are listed in FIG. 4B. […] In similar experiments, murine CTACK bound the receptor with a Kd of ˜9 nM (not shown). CTACK is also referred to as CCL27, ALP, ILC, and ESkine.

- binding in homologous competition of radiolabeled with unlabeled chemokine (CCX CKR [1]): significant binding
- migration of CCX CKR transfectants in response to chemokine (CCX CKR [2]): moderate migration
- competition with 125I-labeled ELC binding to CCX CKR (fingerprint) (CCX CKR [3]): bound well
- affinity of binding to CCX CKR, in words (CCX CKR [6]): high affinity
Molecule: ELC: EBI1 ligand chemokine, recombinant
- effect of soluble chemokine on ELC-SK mediated adhesion of HEK293-CCX CKR cells (CCX CKR [4]): abolished; also recorded: ablation of adhesion
- internalization of CCX CKR (CCX CKR [5]): Internalization of the receptor was observed

- migration of CCX CKR transfectants in response to chemokine (CCX CKR [2]): moderate migration
- competition with 125I-labeled ELC binding to CCX CKR (fingerprint) (CCX CKR [3]): bound well
- affinity of binding to CCX CKR, in words (CCX CKR [6]): high affinity
B1: SLC: secondary lymphoid-tissue chemokine, recombinant (protein)
chain: SDGGAQDCCLKYSQRKIPAKVVRSYRKQEPSLGCSIPAILFLPRKRSQAELCADPKELWVQQLMQHLDKTPSPQKPAQGCRKDRGASKTGKKGKGSKGCKRTERSQTPKGP
- effect of soluble chemokine on ELC-SK mediated adhesion of HEK293-CCX CKR cells (CCX CKR [4]): significant reduction; also recorded: ablation of adhesion
- internalization of CCX CKR (CCX CKR [5]): Internalization of the receptor was observed
